From article PMC6662822, “Rational drug-design approach supported with thermodynamic studies — a peptide leader for the efficient bi-substrate inhibitor of protein kinase CK2” (Scientific Reports, 2019)
Where no end group is shown, it is not given here. 7‑COOH‑Br3Bt = not defined here

Biological target: catalytic subunit of human protein kinase CK2 (human) (UniProt P68400)
Sequence (P68400 whole entry): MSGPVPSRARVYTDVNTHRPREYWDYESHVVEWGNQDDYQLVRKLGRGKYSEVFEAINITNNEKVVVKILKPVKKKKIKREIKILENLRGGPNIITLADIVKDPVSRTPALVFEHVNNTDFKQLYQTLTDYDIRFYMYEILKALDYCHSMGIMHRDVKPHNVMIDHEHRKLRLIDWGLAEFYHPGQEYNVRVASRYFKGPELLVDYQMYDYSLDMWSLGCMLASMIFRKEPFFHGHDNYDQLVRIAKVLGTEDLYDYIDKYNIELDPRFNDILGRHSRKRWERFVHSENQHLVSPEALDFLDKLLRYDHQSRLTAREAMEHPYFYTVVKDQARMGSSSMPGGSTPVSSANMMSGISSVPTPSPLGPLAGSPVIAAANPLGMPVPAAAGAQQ

IC50 of inhibition of hCK2α kinase activity (ADP-Glo assay; 10 μM substrate peptide …, 10 μM ATP, 30 °C): 0.67 µM
Binder: K(7‑COOH‑Br3Bt)ESEEE-NH2 (reading uncertain) [bi-substrate inhibitor (KESEEE-NH2 conjugated with 7-COOH-Br3Bt)]
